Positions count from the first letter of the chain named. Numbers in names are those of the source.
B1: Casp-8^tDED_F122G/L123G mutant (domain or fragment, human, UniProt Q14790 1-185, looked up)
chain: MDFSRNLYDIGEQLDSEDLASLKFLSLDYIPQRKQEPIKDALMLFQRLQEKRMLEESNLSFLKELLFRINRLDLLITYLNTRKEEMERELQTPGRAQISAYRVMLYQISEEVSRSELRSFKGGLQEEISKCKLDDDMNLLDIFIEMEKRVILGEGKLDILKRVCAQINKSLLKIINDYEEFSKER
notes: procaspase-8 (Casp-8) tandem DED, human, residues 1-185, F122G/L123G (FGLG) in the FL motif of DED2; The methods name no tag for this protein; also called C8^FGLG; source: E. coli BL21-CodonPlus; co-purified in the ternary complex (Ni-NTA, SEC); also purified alone by SEC
B2: Casp-8^tDED F122A mutant (Casp-8^tDED_F122A) (domain or fragment, human, UniProt Q14790 1-185, looked up)
chain: B1 chain with G122A, G123L
notes: source: E. coli, co-expressed with CF^H7G, SEC
B3: full-length FADD H9G mutant (FADD^FuL_H9G) (natural protein)
chain: MDPFLVLLGSVSSSLSSSELTELKFLCLGRVGKRKLERVQSGLDLFSMLLEQNDLEPGHTELLRELLASLRRHDLLRRVDDFEAGAAAGAAPGEEDLCAAFNVICDNVGKDWRRLARQLKVSDTKIDSIEDRYPRNLTERVRESLRIWKNTEKENATVAHLVGALRSCQMNLVADLVQEVQQARDLQNRSGAMSPMSWNSDASTSEAS
notes: Fas-associated protein with death domain (FADD), human, full length, H9G; only the DED is visible in the crystal structure (FADD DD not visible); A selenomethionine-substituted complex was also made for phasing (PDB 8YD7); also called FADD^DED molecule FAl; source: E. coli BL21-CodonPlus, co-purified in the ternary complex (Ni-NTA, SEC); not shown: 6xHis, C-terminal, kept
B4: wild-type full-length FADD (FADD^FuL) (natural protein, human, UniProt Q13158 1-208, looked up)
chain: B3 chain with G9H
notes: Fas-associated protein with death domain (FADD), human, wild type, full length; only the DED is visible in the cryo-EM maps; also called FA^FuL; WT FADD; source: E. coli BL21-CodonPlus; co-purified in the ternary complex (Ni-NTA, SEC); also in precipitates of overexpressed proteins resuspended in water; not shown: 6xHis, C-terminal, kept
B5: full-length Casp-8 mutant F122G/L123G/C360A/D374A/D384A (natural protein, human, UniProt Q14790 1-479, looked up)
chain: MDFSRNLYDIGEQLDSEDLASLKFLSLDYIPQRKQEPIKDALMLFQRLQEKRMLEESNLSFLKELLFRINRLDLLITYLNTRKEEMERELQTPGRAQISAYRVMLYQISEEVSRSELRSFKGGLQEEISKCKLDDDMNLLDIFIEMEKRVILGEGKLDILKRVCAQINKSLLKIINDYEEFSKERSSSLEGSPDEFSNGEELCGVMTISDSPREQDSESQTLDKVYQMKSKPRGYCLIINNHNFAKAREKVPKLHSIRDRNGTHLDAGALTTTFEELHFEIKPHDDCTVEQIYEILKIYQLMDHSNMDCFICCILSHGDKGIIYGTDGQEAPIYELTSQFTGLKCPSLAGKPKVFFIQAAQGDNYQKGIPVETASEEQPYLEMALSSPQTRYIPDEADFLLGMATVNNCVSYRNPAEGTWYIQSLCQSLRERCPRGDDILTILTEVNYEVSNKDDKKNMGKQMPQPTFTLRKKLVFPSD
notes: procaspase-8 (Casp-8), human, full length with FGLG mutations, catalytic inactivity and processing deficiencies; only the tDED is visible in the cryo-EM maps (protease domain not visible); The methods name E. coli BL21-CodonPlus only for FADD, the Casp-8 tDED mutant and cFLIP tDED; also called Casp-8^tDED molecules C8a, C8b, C8c (triple-FADD complex)

Legend:
[1] = molecular target: B3; assay: crystal structure; FA^FuL_H9G-C8^FGLG-CF^H7G complex; proteins individually expressed in E. coli, complex co-purified by Ni-NTA and SEC (80 mM NaCl, 20 mM Tris pH 8.0); hanging drop, 20 °C; MR-SAD; 3.1 Å; one 1:5:4 complex per asymmetric unit; FADD DD not visible; settings: both partners purified
cFLIP^tDED H7G mutant = cFLIP^tDED H7G mutant (human, UniProt O15519 1-181, H7G); assay: as above; settings: both partners purified
[2] = molecular target: B4; assay: negative-stain EM; C8^FGLG purified by SEC, in the presence of WT FADD with a C-terminal His-tag; FADD detected by Ni-NTA Nanogold; SDS-PAGE of the EM sample; settings: both partners purified
[3] = molecular target: the molecule itself; assay: SEC + other: negative-stain EM; Casp-8^tDED_F122A and CF^H7G co-expressed; SEC profile, negative-stain EM and SDS-PAGE of the peak fractions
[4] = molecular target: B5; assay: cryo-EM structure; FA^FuL-C8^FuL_FGLG_CADA-CF complex; Complex A without cross-linking (7.5 Å) and Complex B stabilised by GraFix, glutaraldehyde (3.7 Å); Casp-8 protease domain and FADD DD not visible; settings: both partners purified
wild-type cFLIP^tDED = wild-type cFLIP^tDED (human, UniProt O15519 1-181); assay: as above; settings: both partners purified
[5] = molecular target: the molecule itself; assay: as above

B1
binding result [1]: binds | binding result (cFLIP^tDED H7G mutant): binds | binding result [2]: binds

B2
binding result [3]: binds

B3
binding result (cFLIP^tDED H7G mutant): binds

B4
binding result [4]: binds

B5
binding result (wild-type cFLIP^tDED): binds | stoichiometry N [5]: 3
